Test results as given in the supplement of paper PMC9170038.

tested on: K4 kissing-loop RNA reporter; test: apparent KD of K4 kissing-loop reporter; higher = weaker reporter binding; settings: Eterna round: R107; input ligand: arginine 13.2 mM
Protocol: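 RNA-MaP round R107: designed RNA switches with theophylline, tryptophan, arginine or FMN aptamers are transcribed on-chip within common flanks. They are titrated with a labelled K4 kissing-loop RNA reporter in RNA-MaP buffer (100 mM Tris pH 7.5, 80 mM KCl, 4 mM MgCl2), without ligand or with the indicated ligand. Median apparent KD per design.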
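Note: bound reporter read as fluorescence of individual clusters on recovered sequencing chips by microscopy, with normalized cluster intensities fitted with a binding model.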

Sequence | apparent KD of K4 kissing-loop reporter
AAUCAAUACAGAAGGAGCGUGACAGUUGCGAGUGUAAUUUUAGCUAGUGAUGUUAGCAUUUCACAGGUAGGUCGCUGUACAUUUA [#05 K4 Arginine B Same State] | 134 nM
GGAUAGGAUAGAGGAUAUGGUUUAGGCAAGAAUAACUUGUCAUGUAAAUCCAUGAGGAGUGAUGUUCCAGAAGGCUGUCCUAUCG [MatMod 8 - Jieux - Exclusion - FMN B] | 123 nM
AGCUGCCGAAUAGAUACCAGUGUCUUUAGUGAUGUUUCAGAGCUGGCACGAUCAGAAGGUCACCCUUGGCAGCUAGUGCCAGCGU [theeternabot_exclusion_KL_Theo_B_39] | 145 nM
UGAUACCAGACGGCCGCCACUAGACCAGUCAAAGACUGGAUGUGAUGUUUGAGGAGUGAUGUUCCUAGGACCGGGUCUGGUAUCU [TrypBX 4 #Palindromic #SwitchBubble #StaticStem] | 76.7 nM
AAGGCGUCGAGUUUGGUGGCGCCAACAGAUACCAGAUUACCUCCAAUCCCUUGGCAGCUGGCUUGAGAGUGAUGUUUUCAAAAGU [theeternabot_sameState_KL_Theo_A_33] | 447 nM
GGCAUCCAUGGACAUAGUGAUGUUAUGUACCGAGGACCGGUACGGCCGCCACUCGGCCAUGGAUGCCGCAAUCGGAAACGAUUGC | 558 nM
CCAUCGCUAUUCGAUACCAGCUACUUAGUGAUGUUAAGUUUUUACCCACUGUAGGUGGGAAGCCCUUGGCAGCGAAUAGUGAUGG [Theophylline B K4 27] | 203 nM
UGAACCGCCCAGUGAUGUUGGGCCAUAGAUACCAGCCUCUCCGACGGCCCUUGGCAGCUAGGGCCCGGCAGGUAGGAGACUCUGC [Orarzasove] | 220 nM
UGUCAUUGGUCGGCCGCCACUAGGACCGGGAGUAACCUAGUGAUGUUAGUGUGCUCGGCCGCCACUAGGACCGGGACCGAUGACU [KL-SSTryp-B22 #DoubleAptamer] | 164 nM
AGAACUGUCUUGGAUACCAGUGAUGUUGGUAUCUAUGUGUGAGUGCAAAGCGUCCCACAUUGCCCUUGGCAGCUAAGACUGUUCA [Omei KL Theo B Exc A v2] | 132 nM
GGAUAGGAUAGAGGAUAUGGUUUAUGCAGGAAUAACUUAUCGUGUAAAUCCAUAGGGAGUGAUGUUCCAGAAGGCUGUCCUAUCG [MatMod 13 - Jieux - Exclusion - FMN B] | 202 nM
UGACUGGAUGGAAGGAGCGCUAAACUCCUAGUGAUGUUAGGGAAACGAGACAAAGUCUCGAGGCAGGUAGGUCGCCAUCUAGUCU [FiskerMod 15 - Jieux - Same State - Arginine B] | 139 nM
UGUCAUUGGUCGGCCGCCACUCCAUAAAGAGUGAUGUUCUAAAAGACGGAUCGAAAGAUCUGUCGGAGGACCGGGACCGAUGACU [FiskerMod 4 - Jieux - Same State - Tryptophan B] | 555 nM
UGAUAGGACAGAAGGAGCGGAAGUGAUGUUUCCAAAAGGAAAGGUCGACAAAGUCGACCCUUCCAGGUAGGUCGCUGUCCUAUCU [ArgBX 8 #Palindromic #SwitchBubble #StaticStem] | 90.5 nM
AAGUGUGUGGCGGCCGCCACUAGGAUCCAGUGAUGUUGGAGAUAUCUCGUAAGAGAUAUCCGCCAUAGGACCGGGCCAUAUAGAA [Same State - Tryptophan B (Freestyle 16)] | 423 nM
GGGAUAGGAUCAGUGAUGUUGGUCCCAGAUACCAGACAAAGUCACGUCCCUUGGCAGCUGAUGAUCGCUGACGACCGGCCUCCAA [theeternabot_sameState_KL_Theo_A_7] | 218 nM
UGACUGGACUGAAGGAGCGCGCGAGACAAAGUCUCGAACUGGUAGUGAUGUUAUCAAAUAACGCAGGUAGGUCGCAGUCUAGUCU [ArgBS 12 #SwitchBubble #StaticStem] | 167 nM
UGACUACAAAAGGAAUAAUCCUAGUGAUGUUAGGAUAUGCUGAUAAGCAGAAGGAACUGAGAUCGAAAGAUCUCAAAUGUAGUCU [FmnAX 25 Mat Inspired #SwitchBubble #StaticStem #K4Early] | 89.1 nM
AAACAUUGGUCGGAUACCAGUUAGACCGAUAGGUCAAAACUGGAGUGAUGUUCCUAAAAUAACCCUUGGCAGCCGACCGAUGAAA [MAT - Same State Theophlline B - Mod of Eli - D5] | 599 nM
CCAUUCAUUUACGAUACCAGUCUAAUAUAUUGAAUCAAAACCCUCGCCGAGUGAUGUUCGGACCCUUGGCAGCGUCUGCGAGAGG [ddrdkmullin] | 548 nM
GGAUAGGACGGAGGAUAUGGUAGUGAUGUUACCAAACUGGUUAAACAUGUCAGAAAACUGGCAUGACCAGAAGGCCGUCCUAUCG [FmnBX 27 G10+C76] | 62.6 nM
CAUACGCAUGGAGGAUAUGAGAUUUCUCAUAUUAUUUAAUAUUCUCAGUGAUGUUGGGAUUUAAACUCAGAAGGCCAUGUGUAUG [Ex FMN B 7] | 159 nM
AAGGUCACCACUACAGUGAUGUUGUAGGAGCAGGAUAUGCAGAAAUGCAGAAGGGCUCGCUCCAGGUGACCGAAUGAAACAUUCA [Omei KL FMN A SS A v4] | 341 nM

same assay, conditions: Eterna round: R107; input ligand: none

Sequence | apparent KD of K4 kissing-loop reporter
CAGCCUGGUCAGUGAUGUUGGCCGCAGGGAAAGGAUAUUGUGUUGGCAAGAAGGUUCGCUUGAUCGUUGGCCCAUGCAUGGGCCU [theeternabot_sameState_KL_FMN_A_44] | 197 nM
CUUAUGGACUAAGGAUAUGGGUAUACCGGAAGCGCCGUCACGGUAGUGAUGUUACACGCGACGGGACCAGAAGGUAGAUCGCUCC [theeternabot_exclusion_KL_FMN_B_33] | 101 nM
UUGUUUGGUUGAGAGGUUGGGCGAGAUGAUACCAGUAGAGAAGAGUACCCUUGGCAGCAUAGGAGAGAUAUAGUGAUGUUGUAUA [SSTheophA.R] | 420 nM
GCGCGUCAUGUCAGCGGUGACACUGUCGAUACCAGUGCCGCAAGGCGCCCUUGGCAGCGACGUGCUGGAGUGAUGUUCCAGCGUU [#2 Exclusion - Theophylline A Attempt #29 (HarryS)] | 161 nM
UCACAGUCCAAAGGAUAUUGAGUGCGCGUGCGAUUUAAGCUGAAGCCGUAGCUAGUGAUGUUAGCCCAAGAAGGUUGGUAGCCAG [theeternabot_exclusion_KL_FMN_B_16] | 140 nM
UCGAAGGAUGGAAGGAGCGCUCGUCAGUCCUGCGAGUGAUGUUCGUGGGUAAAUAUUCGCGAGCAGGUAGGUCGCCAUCUUGAGA [Laatla] | 112 nM
GGUAGCAUGGCGGCCGCCACUCAUGUAGAUACCUACAUAGUAAGCAGUGAUGUUGCUUUGUGGUUGAGGACCGGGCCAUGCUACC | 151 nM
AAUCAAUACAGAAGGAGCGUGACAGUUGCGAGUGUAAUUUUAGCUAGUGAUGUUAGCAUUUCACAGGUAGGUCGCUGUACAUUUA [#05 K4 Arginine B Same State] | 133 nM
GGAUAGGAUAGAGGAUAUGGUUUAGGCAAGAAUAACUUGUCAUGUAAAUCCAUGAGGAGUGAUGUUCCAGAAGGCUGUCCUAUCG [MatMod 8 - Jieux - Exclusion - FMN B] | 121 nM
AGCUGCCGAAUAGAUACCAGUGUCUUUAGUGAUGUUUCAGAGCUGGCACGAUCAGAAGGUCACCCUUGGCAGCUAGUGCCAGCGU [theeternabot_exclusion_KL_Theo_B_39] | 261 nM
UGAUACCAGACGGCCGCCACUAGACCAGUCAAAGACUGGAUGUGAUGUUUGAGGAGUGAUGUUCCUAGGACCGGGUCUGGUAUCU [TrypBX 4 #Palindromic #SwitchBubble #StaticStem] | 82.4 nM
AAGGCGUCGAGUUUGGUGGCGCCAACAGAUACCAGAUUACCUCCAAUCCCUUGGCAGCUGGCUUGAGAGUGAUGUUUUCAAAAGU [theeternabot_sameState_KL_Theo_A_33] | 627 nM
GGCAUCCAUGGACAUAGUGAUGUUAUGUACCGAGGACCGGUACGGCCGCCACUCGGCCAUGGAUGCCGCAAUCGGAAACGAUUGC | 885 nM
CCAUCGCUAUUCGAUACCAGCUACUUAGUGAUGUUAAGUUUUUACCCACUGUAGGUGGGAAGCCCUUGGCAGCGAAUAGUGAUGG [Theophylline B K4 27] | 239 nM
UGAACCGCCCAGUGAUGUUGGGCCAUAGAUACCAGCCUCUCCGACGGCCCUUGGCAGCUAGGGCCCGGCAGGUAGGAGACUCUGC [Orarzasove] | 272 nM
